According to patent publication US20110064746A1 (published 2011):

Target: T1, recombinant HMGB-1 (Homo sapiens (Human), UniProt P09429 1-215)
T1 construct: also called recombinant HMGB1 protein; recombinant HMGB-1 obtained from R&D system
T1 sequence: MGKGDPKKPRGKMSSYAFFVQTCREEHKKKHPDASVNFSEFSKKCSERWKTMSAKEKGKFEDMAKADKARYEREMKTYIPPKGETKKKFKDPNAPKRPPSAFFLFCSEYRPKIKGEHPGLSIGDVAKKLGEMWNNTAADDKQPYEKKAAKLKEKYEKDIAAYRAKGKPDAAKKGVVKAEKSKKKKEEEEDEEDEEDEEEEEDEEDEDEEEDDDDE
Experiment: SPR, BIACORE3000

| Binder | Kd |
| --- | --- |
| anti-HMGB-1 mAb 3E8 (antibody, V domains shown) VH: QVQLQQSGPELVKPGASVKISCKASGYAFSNYWMNWVKQRPGKGLEWIGRIYPGDGDMAYNGKFRGKATLTADKSSSTAYMQLSSLTSEDSAVYFCARSLDGYVGYVMDYWGQGTSVTVSS VL: DIVMTQAAPSVPVTPGESVSISCRSSKSLLHRNGNIFLYWFLQRPGQSPQLLIYRMSNLASGVPDRFSGSGSGTAFTLRISRVETEDVGVYYCMQHLEYPFTFGSGTKLEIK | 1.3 nM |
| anti-HMGB-1 mAb 3B1 (antibody, V domains shown) VH: QVQLQQPGAELVKPGASVKLSCKASGYTFTSYWMHWVKQRPGQGLEWIGNIDPSDSETHYNQKFKDKATLTVDKSSSTAYMQLNSLTSEDSAVYYCAKRGYYGYDYWGQGTTLTV VL: DVLMTQTPLSLPVSLGDQASISCRSSQSIVHSNGNTYLEWYLQKAGQSPKLLIYKVSNRFSGVPDRFSGSGSGTDFTLKISRVEAEDLGVYYCFQGAHVPRTFGGGTKLEIK | 7.8 nM |
